# According to patent US20100297160A1 (MEDICAL COLLEGE OF GEORGIA RESEARCH INSTITUTE, published 2010):
# Molecular target: human amyloid beta 42 (Aβ42) (human)
# Test: co-incubation of equimolar peptides for one month at 37 C, dialysis, 10 kDa filter concentration, SDS gel
# Procedure: Various means were studied to enhance the immune potential of amyloid peptides. One such approach was derived from experiments with samples of human plasma and brain tissues having a complex of peptides that expressed epitopes for both human Aβ peptide and human RAGE. This involved the incubation of equimolar amounts of Aβ and an immunogenic fragment of RAGE for one month in sterile water at 37° C.
# After incubation, the solution was dialyzed to remove unused products. The dialyzed solution was then concentrated in a centrifugation filter with a 10,000 molecular weight cutoff. […] The concentrated complex was dissolved in water and administered orally to rats on three occasions with two weeks between administrations. Two weeks after the last administration plasma samples were obtained for the determination of Aβ or RAGE titers.
# human amyloid beta 42 (Aβ42) (human), sequence (peptide, as listed by the source): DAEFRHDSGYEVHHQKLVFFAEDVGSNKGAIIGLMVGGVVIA
binder,measurement,value
"AQNITARIGEPLVLKCKGAPKKPPQRLEWKLN (also called RAGE fragment) [immunogenic fragment of RAGE, amino acids 23 to 54 of human RAGE (RAGE23-54)]",binding result,binds
